In the Immune Epitope Database (IEDB):

Key:
HLA-B*27:05 [1] = assay: IEDB peptide-MHC binding, purified MHC/competitive/fluorescence; filed as Kd, often an IC50 or EC50 that approximates it; ≥ and ≤ were set here for values at or beyond the usual limits of such assays; conditions: source organism: Giardia lamblia ATCC 50803
HLA-B*07:02 [2] = assay: as above; conditions: source organism: Giardia lamblia ATCC 50803
HLA-B*14:02 = assay: as above; conditions: source organism: Giardia lamblia ATCC 50803
HLA-A*66:01 = assay: as above; conditions: source organism: Giardia lamblia ATCC 50803
HLA-A*30:01 = assay: as above
HLA-B*40:01 [3] = assay: as above; conditions: source organism: Giardia lamblia ATCC 50803
HLA-A*01:01 [4] = assay: as above
HLA-B*08:01 = assay: as above
HLA-A*30:02 = assay: as above; conditions: source organism: Giardia lamblia ATCC 50803
HLA-B*51:01 [5] = assay: as above; conditions: source organism: Giardia lamblia ATCC 50803
HLA-A*11:01 [6] = assay: as above; conditions: source organism: Giardia lamblia ATCC 50803
HLA-B*53:01 = assay: as above; conditions: source organism: Giardia lamblia ATCC 50803
HLA-B*58:01 [7] = assay: as above; conditions: source organism: Giardia lamblia ATCC 50803
HLA-B*44:02 = assay: as above; conditions: source organism: Giardia lamblia ATCC 50803
HLA-A*02:01 = assay: IEDB peptide-MHC binding, purified MHC/direct/fluorescence; filed as Kd, often an IC50 or EC50 that approximates it; ≥ and ≤ were set here for values at or beyond the usual limits of such assays
HLA-A*68:02 = assay: as above; conditions: source organism: Giardia lamblia ATCC 50803
HLA-A*23:01 = assay: as above; conditions: source organism: Giardia lamblia ATCC 50803
HLA-A*02:12 = assay: as above; conditions: source organism: Giardia lamblia ATCC 50803
HLA-A*29:02 = assay: as above; conditions: source organism: Giardia lamblia ATCC 50803
HLA-B*27:03 = assay: as above; conditions: source organism: Giardia lamblia ATCC 50803
HLA-A*02:19 = assay: as above; conditions: source organism: Giardia lamblia ATCC 50803
HLA-A*26:01 = assay: as above
HLA-B*15:01 = assay: as above
HLA-A*03:01 = assay: as above
HLA-B*18:01 = assay: as above
HLA-B*46:01 = assay: as above
HLA-B*39:01 [8] = assay: as above; conditions: source organism: Giardia lamblia ATCC 50803
HLA-A*02:03 = assay: as above; conditions: source organism: Giardia lamblia ATCC 50803
HLA-A*24:03 = assay: as above; conditions: source organism: Giardia lamblia ATCC 50803
HLA-B*27:05 [9] = assay: as above
HLA-B*48:01 = assay: as above
HLA-A*31:01 = assay: as above
HLA-B*40:01 [10] = assay: as above
HLA-B*38:01 = assay: as above
HLA-A*01:01 [11] = assay: as above; conditions: source organism: Mycobacterium tuberculosis
HLA-B*51:01 [12] = assay: as above
HLA-A*11:01 [13] = assay: as above
HLA-B*15:17 = assay: as above
HLA-A*69:01 [14] = assay: as above; conditions: source organism: Mycobacterium tuberculosis
HLA-B*57:01 = assay: as above
HLA-B*58:01 [15] = assay: as above
HLA-A*69:01 [16] = assay: IEDB peptide-MHC binding, purified MHC/competitive/fluorescence; filed as Kd, often an IC50 or EC50 that approximates it; ≥ and ≤ were set here for values at or beyond the usual limits of such assays; conditions: source organism: Burkholderia mallei ATCC 23344
HLA-B*39:01 [17] = assay: as above; conditions: source organism: Burkholderia mallei ATCC 23344
HLA-B*07:02 [18] = assay: IEDB peptide-MHC binding, purified MHC/direct/fluorescence; filed as Kd, often an IC50 or EC50 that approximates it; ≥ and ≤ were set here for values at or beyond the usual limits of such assays; conditions: source organism: Burkholderia mallei
HLA-B*15:09 = assay: as above; conditions: source organism: Burkholderia mallei ATCC 23344
[19] = source organism: Giardia lamblia ATCC 50803
[20] = source organism: Mycobacterium tuberculosis variant bovis BCG str. Pasteur 1173P2
[21] = source organism: Mycobacterium tuberculosis
[22] = source organism: Mycobacterium tuberculosis str. Haarlem
[23] = source organism: Burkholderia mallei ATCC 23344
[24] = source organism: Burkholderia mallei

MTFPLHFRS was tested, and the Kd (HLA-B*27:05 [1]) was ≥ 5 µM, the Kd (HLA-B*07:02 [2]) was ≥ 5 µM and the Kd (HLA-B*14:02) was ≥ 5 µM. For the same sequence, the Kd (HLA-A*66:01) was ≥ 5 µM, the Kd (HLA-A*30:01; [19]) was ≥ 5 µM and the Kd (HLA-B*40:01 [3]) was ≥ 5 µM. The Kd (HLA-A*01:01 [4]; [19]) was ≥ 5 µM, the Kd (HLA-B*08:01; [19]) was ≥ 5 µM and the Kd (HLA-A*30:02) was ≥ 5 µM. For the same sequence, the Kd (HLA-B*51:01 [5]) was ≥ 5 µM, the Kd (HLA-A*11:01 [6]) was 0.113 µM and the Kd (HLA-B*53:01) was ≥ 5 µM. For the same sequence, the Kd (HLA-B*58:01 [7]) was ≥ 5 µM, the Kd (HLA-B*44:02) was ≥ 5 µM and the Kd (HLA-A*02:01; [19]) was ≥ 20 µM. The Kd (HLA-A*68:02) was ≤ 0.001 µM, the Kd (HLA-A*23:01) was ≥ 20 µM and the Kd (HLA-A*02:12) was ≥ 20 µM. The Kd (HLA-A*29:02) was 0.028 µM, the Kd (HLA-B*27:03) was ≥ 20 µM and the Kd (HLA-A*02:19) was ≥ 20 µM. The Kd (HLA-A*26:01; [19]) was ≥ 20 µM, the Kd (HLA-B*15:01; [19]) was ≥ 20 µM and the Kd (HLA-A*03:01; [19]) was ≥ 20 µM. The Kd (HLA-B*18:01; [19]) was ≥ 20 µM, the Kd (HLA-B*46:01; [19]) was ≥ 20 µM and the Kd (HLA-B*39:01 [8]) was ≥ 20 µM. The Kd (HLA-A*02:03) was ≥ 20 µM and the Kd (HLA-A*24:03) was ≥ 20 µM.
With RPRLWRSVI the Kd (HLA-A*30:01; [20]) was ≥ 20 µM, the Kd (HLA-B*08:01; [20]) was 0.324 µM and the Kd (HLA-A*02:01; [21]) was ≥ 20 µM. For the same sequence, the Kd (HLA-B*27:05 [9]; [21]) was ≥ 20 µM, the Kd (HLA-B*48:01; [21]) was ≥ 20 µM and the Kd (HLA-A*31:01; [21]) was ≥ 20 µM. The Kd (HLA-B*40:01 [10]; [21]) was ≥ 20 µM, the Kd (HLA-B*38:01; [22]) was ≥ 20 µM and the Kd (HLA-A*01:01 [11]) was ≥ 20 µM. For the same sequence, the Kd (HLA-B*51:01 [12]; [21]) was 0.964 µM, the Kd (HLA-A*11:01 [13]; [21]) was ≥ 20 µM and the Kd (HLA-B*15:17; [21]) was 2.58 µM. For the same sequence, the Kd (HLA-A*26:01; [22]) was ≥ 20 µM, the Kd (HLA-B*15:01; [21]) was ≥ 20 µM and the Kd (HLA-A*69:01 [14]) was ≥ 20 µM. The Kd (HLA-A*03:01; [21]) was ≥ 20 µM, the Kd (HLA-B*18:01; [21]) was ≥ 20 µM and the Kd (HLA-B*46:01; [21]) was ≥ 20 µM. The Kd (HLA-B*57:01; [21]) was ≥ 20 µM and the Kd (HLA-B*58:01 [15]; [21]) was ≥ 20 µM.
EPFSRRHPL showed a Kd (HLA-A*01:01 [4]; [23]) of 3.27 µM, a Kd (HLA-B*08:01; [23]) of 0.0583 µM and a Kd (HLA-A*69:01 [16]) of 0.209 µM. For the same sequence, the Kd (HLA-B*39:01 [17]) was 0.443 µM, the Kd (HLA-A*02:01; [24]) was ≥ 20 µM and the Kd (HLA-B*27:05 [9]; [24]) was ≥ 20 µM. The Kd (HLA-B*48:01; [24]) was ≥ 20 µM, the Kd (HLA-B*07:02 [18]) was 0.01 µM and the Kd (HLA-A*31:01; [24]) was ≥ 20 µM. The Kd (HLA-B*40:01 [10]; [24]) was ≥ 20 µM, the Kd (HLA-B*38:01; [23]) was ≥ 20 µM and the Kd (HLA-B*51:01 [12]; [24]) was ≥ 20 µM. The Kd (HLA-A*11:01 [13]; [24]) was ≥ 20 µM, the Kd (HLA-B*15:17; [24]) was 0.367 µM and the Kd (HLA-A*26:01; [23]) was ≥ 20 µM. For the same sequence, the Kd (HLA-B*15:01; [24]) was ≥ 20 µM, the Kd (HLA-A*03:01; [24]) was ≥ 20 µM and the Kd (HLA-B*15:09) was ≥ 20 µM. For the same sequence, the Kd (HLA-B*18:01; [24]) was ≥ 20 µM, the Kd (HLA-B*46:01; [24]) was ≥ 20 µM and the Kd (HLA-B*57:01; [24]) was ≥ 20 µM. For the same sequence, the Kd (HLA-B*58:01 [15]; [24]) was ≥ 20 µM.
